Data taken from paper PMC2186165.

Biological target: B lymphocyte surface IgM (mouse (endogenous in spleen cells))
Assay: cocapping

Chain of B lymphocyte surface IgM (mouse (endogenous in spleen cells)) (P01872 whole entry): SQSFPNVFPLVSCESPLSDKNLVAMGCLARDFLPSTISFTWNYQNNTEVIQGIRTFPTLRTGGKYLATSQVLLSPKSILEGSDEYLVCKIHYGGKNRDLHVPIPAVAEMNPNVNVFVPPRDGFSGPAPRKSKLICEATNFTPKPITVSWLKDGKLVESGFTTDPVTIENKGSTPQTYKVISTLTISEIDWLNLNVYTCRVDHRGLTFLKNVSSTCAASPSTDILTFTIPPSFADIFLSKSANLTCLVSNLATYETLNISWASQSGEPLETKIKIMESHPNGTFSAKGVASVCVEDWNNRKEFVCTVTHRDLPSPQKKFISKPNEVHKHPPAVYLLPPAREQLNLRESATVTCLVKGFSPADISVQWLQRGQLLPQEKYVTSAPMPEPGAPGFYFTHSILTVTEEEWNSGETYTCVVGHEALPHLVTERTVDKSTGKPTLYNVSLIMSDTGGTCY

## B lymphocyte Fc IgG receptor (from UniProt P08101 30-330)
  % of B lymphocytes with capped sIgM that also had capped FcGR (12 experiments): 86%
  % of FcGR-positive cells with FcGR capped (Table III, experiment B, part 4): 62%
  % of FcGR-positive cells with FcGR capped (Table IV, part 4): 46%
